One data set addresses T1, C-reactive protein (CRP) (UniProt P02741 19-224).
T1 sequence: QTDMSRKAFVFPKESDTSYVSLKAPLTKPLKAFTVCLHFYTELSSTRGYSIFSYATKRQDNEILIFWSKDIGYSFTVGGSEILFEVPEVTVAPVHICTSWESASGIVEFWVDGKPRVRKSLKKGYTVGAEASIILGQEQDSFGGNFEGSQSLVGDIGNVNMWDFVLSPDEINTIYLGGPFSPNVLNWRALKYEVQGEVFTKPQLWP
Nature of the data set: surface sandwich chemiluminescence (anti-CRP antibody-HRP); 100 nM CRP, 1 mM Ca2+, 1 mM Mg2+; still binds after two months storage at 4 C; CRP: 20 mM Hepes, 120 mM NaCl, 5 mM KCl, 1 mM CaCl2, 1 mM MgCl2, pH 7.3, room temperature, 30 min; thrombin: buffer with 0.05% Tween 20 (composition and temperature not in material). The following applies: protein: commercial; chain copies: 5; label: 3' TAMRA on some amounts.

In the next data set the target is thrombin (Thr) (UniProt P00734;P00734 328-363;364-622). Nature of the data set: microring resonator (label-free photonic biosensor); 100 nM thrombin, 0.05% Tween 20, MCH-passivated chip; about 71% retained after buffer wash; CRP: 20 mM Hepes, 120 mM NaCl, 5 mM KCl, 1 mM CaCl2, 1 mM MgCl2, pH 7.3, room temperature, 30 min; thrombin: buffer with 0.05% Tween 20 (composition and tempera).

B1: a-CRP (ssDNA)
DNA: CGAAGGGGATTCGAGGGGTGATTGCGTGCTCCATTTGGTG
modifications: 5' thiol (5ThioMC6-D, reduced), immobilized on mercaptosilane
For B1, the binding result with C-reactive protein (CRP) is recorded as “binds”.

B2: a-Thr (structured_DNA)
DNA: AGTCCGTGGTAGGGCAGGTTGGGGTGACT
modifications: 5' thiol (5ThioMC6-D, reduced), immobilized on mercaptosilane
On to B2, for which, in the data set with thrombin (Thr), the binding result is given as “binds”.
